Source: paper PMC12365249

Biological target: FOXA1 (UniProt P55317)
Assay: endogenous co-IP with FOXA1 antibody
Details: reference: wild type; sites T603

MED15 (from UniProt Q96RN5) T603A knock-in
binding against the reference: stronger
